Laboratory results reported in the supplement of paper PMC7125110.
± gives the standard error. Variants at the floor of the assay were thinned out.

B1: glmS ribozyme (parent)
chain: AUAAAAGCGCCAGAACUACAGAAAUGUAGUUGACGAGGAGGAGGUUUAUCGAAUUUUCGGCGGAUGCCUCCAAA

Experiments:
Conditions in all cases: with glucosamine-6-phosphate
glucosamine-6-phosphate [1] = variants of: B1; test: self-cleavage kobs at 40 uM GlcN6P; higher = faster cleavage; RNA array
In short: (§1)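 Using a hybridised Cy3 probe at 37 °C, barcoded ribozyme variants transcribed in situ by E. coli RNA polymerase on sequenced MiSeq chips were monitored across tiles imaged over ~14 h. The flow contained glucosamine-6-phosphate from 40 μM to 10 mM in HEPES/KCl/Mg(OAc)2 buffer. Signals were normalised to baseline and to non-cleaving reference variants before per-tile medians were fit to one- or two-exponential decays to yield kobs. Weighted Michaelis–Menten fits across concentrations gave kcat and KM.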

glucosamine-6-phosphate [2] = variants of: B1; test: self-cleavage kobs at 160 uM GlcN6P; higher = faster cleavage; RNA array
In short: as §1

glucosamine-6-phosphate [3] = variants of: B1; test: self-cleavage kobs at 640 uM GlcN6P; higher = faster cleavage; RNA array
In short: as §1

glucosamine-6-phosphate [4] = variants of: B1; test: self-cleavage kobs at 2500 uM GlcN6P; higher = faster cleavage; RNA array
In short: as §1

glucosamine-6-phosphate [5] = variants of: B1; test: self-cleavage kobs at 10000 uM GlcN6P; higher = faster cleavage; RNA array
In short: as §1

Row | Variant | self-cleavage kobs at 40 uM GlcN6P (glucosamine-6-phosphate [1]) | self-cleavage kobs at 160 uM GlcN6P (glucosamine-6-phosphate [2]) | self-cleavage kobs at 640 uM GlcN6P (glucosamine-6-phosphate [3]) | self-cleavage kobs at 2500 uM GlcN6P (glucosamine-6-phosphate [4]) | self-cleavage kobs at 10000 uM GlcN6P (glucosamine-6-phosphate [5])
1 | AUAAAAGCGCCAGAACUACAGAAAUGUAGUUGACGAGGAGGAGGUUUAUCGAAUUUUCGGCGGAUACCUGCAAA | 8.19e-05 ± 1.3e-05 s⁻¹ | 7.92e-05 ± 2.2e-05 s⁻¹ | 0.000305 ± 7.2e-05 s⁻¹ | 0.000267 ± 7.7e-05 s⁻¹ | 0.00273 ± 0.00055 s⁻¹
2 | AUAAAAGCGCCAGAACUACAGAAAUGUAGUUGACGAGGAGGAGGUUUAUCGAAUUUUCGGCGGAUACCUACAAA | 8.27e-05 ± 1.4e-05 s⁻¹ | 7.28e-05 ± 2.8e-05 s⁻¹ | 0.000708 ± 0.00013 s⁻¹ | 0.00036 ± 8.5e-05 s⁻¹ | 0.000947 ± 0.00015 s⁻¹
3 | AUAAAAGCGCCAGAACUACAGAAAUGUAGUUGACGAGGAGGAGGUUUAUCGAAUUUUCGGCGGAUGCCUCUAAA | 0.00128 ± 3.7e-05 s⁻¹ | 0.00366 ± 0.00023 s⁻¹ | 0.00716 ± 0.00034 s⁻¹ | 0.0256 ± 0.0014 s⁻¹ | 0.0553 ± 0.0027 s⁻¹
4 | AUAAAAGCGCCAGAACUACAGAAAUGUAGUUGACGAGGAGGAGGUUUAUCGAAUUUUCGGCGGAGGCCUCAAAA | 4.51e-05 ± 1.7e-05 s⁻¹ | 6.43e-05 ± 2e-05 s⁻¹ | 0.000497 ± 5.7e-05 s⁻¹ | 0.000938 ± 0.00015 s⁻¹ | 0.00276 ± 0.00056 s⁻¹
5 | ACAAAAGCGCCAGAAGUACAGAAAUGUAGUUGACGAGGAGGAGGUUUAUCGACUUUUCGGCGGAUGCCUCCAAA |  | 4.66e-05 ± 1.6e-05 s⁻¹ | 0.000137 ± 1.9e-05 s⁻¹ | 0.000285 ± 4.6e-05 s⁻¹ | 
6 | AUAAAAGCGCCAGAACUACAGAAAUGUAGUUGACGAGGAGGAGGUUUAUCGAAUUUUCGGCUUAUGCGUCCAAA | < 1e-05 s⁻¹ |  |  |  | 
7 | AUAAAAGCGCCAGAACUACAGAAAUGUAGUUGACGAGGAGGAGGUUUAUCGAAUUUUCGGCGGCUGGCUCCAAA | < 1e-05 s⁻¹ | < 1e-05 s⁻¹ | < 1e-05 s⁻¹ | < 1e-05 s⁻¹ | 
8 | AUAAAAGCGCCAGAACUACAGAAAUGUAGUUGACGAGGAGGAGGUUUAUCGAAUUUUCGGCCGAAGCCUCCAAA | < 1e-05 s⁻¹ |  |  |  | 
9 | AUAAAAGCGCCAGAACUACAGAAAUGUAGUUGACGAGGAGGAGGUUUAUCGAAUUUUCGGCGACUGCCUCCAAA | < 1e-05 s⁻¹ | < 1e-05 s⁻¹ | < 1e-05 s⁻¹ | < 1e-05 s⁻¹ | 
10 | AUAAAAGCGCCAGAACUACAGAAAUGUAGUUGACGAGGAGGAGGUUUAUCGAAUUUUCGGCGGAUGCUUUUAAA | < 1e-05 s⁻¹ |  |  |  | 
11 | AUAAAAGCGCCAGAACUACAGAAAUGUAGUUGACGAGGAGGAGGUUUAUCGAAUUUUCGGCGGAAGCCUCAAAA | 5.65e-05 ± 2.4e-05 s⁻¹ |  |  | 0.0012 ± 0.00041 s⁻¹ | 0.00104 ± 0.00039 s⁻¹
12 | UGGAUAGCGCCAGCACUACAGAAAUGUAGUUGACGAGGAGGAGGUUUAUCGAAUUUUCGGCGGAUGCCCCCAAA |  | 5.02e-05 ± 1.8e-05 s⁻¹ | 0.000257 ± 6e-05 s⁻¹ | 0.000526 ± 0.00012 s⁻¹ | 
13 | AUAAAAGCGCCAGAACUACAGAAAUGUAGUUGACGAGGAGGAGGUUUAUCGAAUUUUCGGCGGAUGCACCCAAA | < 1e-05 s⁻¹ |  |  |  | 4.51e-05 ± 1.6e-05 s⁻¹
14 | AUAAAAGCGCCAGAACUACAGAAAUGUAGUUGACGAGGAGGAGGUUUAUCGAAUUUUCGGCGGAUGACUCUAAA | 7.16e-05 ± 5.5e-06 s⁻¹ | 0.000151 ± 1.3e-05 s⁻¹ | 0.000414 ± 4.1e-05 s⁻¹ | 0.000679 ± 7.6e-05 s⁻¹ | 0.00183 ± 0.00025 s⁻¹
15 | AUAAAAGCGCCAGAACUACAGAAAUGUAGUUGACGAGGAGGAGGUUUAUCGAAUUUUCGGCGGCUUCGUCCAAA | < 1e-05 s⁻¹ |  | < 1e-05 s⁻¹ | < 1e-05 s⁻¹ | 
16 | AUAAAAGCGCCAGAACUACAGAAAUGUAGUUGACGAGGAGGAGGUUUAUCGAAUUUUCGGCGGAGGACUCCAAA | 7.27e-05 ± 1.2e-05 s⁻¹ | 0.000116 ± 1.9e-05 s⁻¹ | 0.000435 ± 6.7e-05 s⁻¹ | 0.00133 ± 0.0004 s⁻¹ | 0.00417 ± 0.0006 s⁻¹
17 | AUAAAAGCGCCAGAACUACAGAAAUGUAGUUGACGAGGAGGAGGUUUAUCGAAUUUUCGGCUGAUGCCUACAAA | < 1e-05 s⁻¹ |  |  |  | 
18 | AUAAAAGCGCCAGAACUACAGAAAUGUAGUUGACGAGGAGGAGGUUUAUCGAAUUUUCGGCGGAUGCCGCCAAA | 0.000371 ± 0.00012 s⁻¹ | 5.87e-05 ± 2.4e-06 s⁻¹ | 0.000488 ± 0.00012 s⁻¹ | 0.00011 ± 4.1e-05 s⁻¹ | 0.000467 ± 7.8e-05 s⁻¹
19 | AUAAAAGCGCCAGAACUACAGAAAUGUAGUUGACGAGGAGGAGGUUUAUCGAAUUUUCGGCGGAUGCCACCAAA | 0.000341 ± 7.7e-05 s⁻¹ | 0.000534 ± 0.00018 s⁻¹ | 0.000282 ± 3.1e-05 s⁻¹ | 0.00219 ± 0.0004 s⁻¹ | 0.000299 ± 4.6e-05 s⁻¹
20 | AUAAAAGCGCCAGAACUACAGAAAUGUAGUUGACGAGGAGGAGGUUUAUCGAAUUUUCGGCGGAUGCUUAUAAA | < 1e-05 s⁻¹ |  |  | < 1e-05 s⁻¹ | < 1e-05 s⁻¹
21 | AUAAAAGCGCCAGAACUACAGAAAUGUAGUUGACGAGGAGGAGGUUUAUCGAAUUUUCGGCGGAUGUCUCGAAA | 1.88e-05 ± 9.1e-06 s⁻¹ | 3.83e-05 ± 1.2e-05 s⁻¹ | 4.78e-05 ± 5.4e-06 s⁻¹ | 0.00068 ± 0.00033 s⁻¹ | 5.12e-05 ± 5.1e-06 s⁻¹
